Experimental data taken from the supplement of paper PMC5998384.

Assays:
HeLa Kyoto [1] = test: solubility in G1/S (NP-40 vs SDS abundance) (log2 ratio); higher = more soluble; conditions: cell cycle stage: G1/S
HeLa Kyoto [2] = test: melting temperature (median over replicates), in situ; higher = more thermally stable
HeLa Kyoto [3] = test: solubility change mitosis vs G1/S (difference of NP-40 vs SDS log2 ratios) (log2 ratio difference); higher = more soluble in mitosis
HeLa Kyoto [4] = test: thermal stability score vs G1/S (z-score of summed log2 fold changes over temperatures); higher = more thermally stable than in G1/S
[5] = cell cycle stage: early G1 (4.5 h after nocodazole release)
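Wherever melting temperature (median over replicates), in situ is given: HeLa Kyoto cells synchronized by double thymidine or nocodazole block, proteins quantified by TMT10plex mass spectrometry, three independent biological replicates.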
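Wherever solubility change mitosis vs G1/S (difference of NP-40 vs SDS log2 ratios) is given: synchronized HeLa Kyoto cells (double thymidine block for G1/S, nocodazole release for mitosis), protein amounts in NP-40 versus SDS lysates quantified by mass spectrometry, three biological replicates.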
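Wherever solubility in G1/S (NP-40 vs SDS abundance) is given: HeLa Kyoto cells arrested at G1/S by double thymidine block, proteins quantified by TMT10plex mass spectrometry in mild NP-40 versus SDS extracts, three biological replicates.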
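Wherever thermal stability score vs G1/S (z-score of summed log2 fold changes over temperatures) is given: synchronized HeLa Kyoto cells, proteins quantified by TMT10plex mass spectrometry, three biological replicates, mitosis taken 0.5 h after nocodazole release, G1/S directly after double thymidine block.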

Sequence of HDGF (chain, as listed by the source): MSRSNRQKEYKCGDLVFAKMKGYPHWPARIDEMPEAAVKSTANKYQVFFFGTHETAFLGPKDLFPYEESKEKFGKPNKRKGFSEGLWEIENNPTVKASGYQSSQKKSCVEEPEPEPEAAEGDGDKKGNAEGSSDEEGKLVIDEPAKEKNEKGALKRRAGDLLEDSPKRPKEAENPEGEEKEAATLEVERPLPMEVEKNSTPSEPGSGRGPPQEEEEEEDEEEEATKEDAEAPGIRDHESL

Substance | solubility in G1/S (log2) (HeLa Kyoto [1]) | melting temperature (HeLa Kyoto [2]; cell cycle stage: G1/S) [°C] | melting temperature (HeLa Kyoto [2]; cell cycle stage: mitosis) [°C] | solubility change mitosis (log2) (HeLa Kyoto [3]) | thermal stability score (HeLa Kyoto [4]; [5]) | thermal stability score (HeLa Kyoto [4]; cell cycle stage: mitosis)
MKLNVDGLLVYFPYDYIYPEQFSYMRELKRTLDAKGHGVLEMPSGTGKTVSLLALIMAYQRAYPLEVTKLIYCSRTVPEIEKVIEELRKLLNFYEKQEGEKLPFLGLALSSRKNLCIHPEVTPLRFGKDVDGKCHSLTASYVRAQYQHDTSLPHCRFYEEFDAHGREVPLPAGIYNLDDLKALGRRQGWCPYFLARYSILHANVVVYSYHYLLDPKIADLVSKELARKAVVVFDEAHNIDNVCIDSMSVNLTRRTLDRCQGNLETLQKTVLRIKETDEQRLRDEYRRLVEGLREASAARETDAHLANPVLPDEVLQEAVPGSIRTAEHFLGFLRRLLEYVKWRLRVQHVVQESPPAFLSGLAQRVCIQRKPLRFCAERLRSLLHTLEITDLADFSPLTLLANFATLVSTYAKGFTIIIEPFDDRTPTIANPILHFSCMDASLAIKPVFERFQSVIITSGTLSPLDIYPKILDFHPVTMATFTMTLARVCLCPMIIGRGNDQVAISSKFETREDIAVIRNYGNLLLEMSAVVPDGIVAFFTSYQYMESTVASWYEQGILENIQRNKLLFIETQDGAETSVALEKYQEACENGRGAILLSVARGKVSEGIDFVHHYGRAVIMFGVPYVYTQSRILKARLEYLRDQFQIRENDFLTFDAMRHAAQCVGRAIRGKTDYGLMVFADKRFARGDKRGKLPRWIQEHLTDANLNLTVDEGVQVAKYFLRQMAQPFHREDQLGLSLLSLEQLESEETLKRIEQIAQQL [ERCC2] | -0.193 | 48.9 | 49.1 | -0.0825 | 1 | 2.34
HDGF | 0.426 | 53.5 | 53.2 | 0.219 | -2.27 | -3.47
MTSPAAAQSREIDCLSPEAQKLAEARLAAKRAARAEAREIRMKELERQQKEEDSERYSRRSRRNTSASDEDERMSVGSRGSLRVEERPEKDFTEKGSRNMPGLSAATLASLGGTSSRRGSGDTSISIDTEASIREIKELNELKDQIQDVEGKYMQGLKEMKDSLAEVEEKYKKAMVSNAQLDNEKTNFMYQVDTLKDMLLELEEQLAESRRQYEEKNKEFEREKHAHSILQFQFAEVKEALKQREEMLEKHGIILNSEIATNGETSDTLNNVGYQGPTKMTKEELNALKSTGDGTLGRASEVEVKNEIVANVGKREILHNTEKEQHTEDTVKDCVDIEVFPAGENTEDQKSSEDTAPFLGTLAGATYEEQVQSQILESSSLPENTVQVESNEVMGAPDDRTRTPLEPSNCWSDLDGGNHTENVGEAAVTQVEEQAGTVASCPLGHSDDTVYHDDKCMVEVPQELETSTGHSLEKEFTNQEAAEPKEVPAHSTEVGRDHNEEEGEETGLRDEKPIKTEVPGSPAGTEGNCQEATGPSTVDTQNEPLDMKEPDEEKSDQQGEALDSSQKKTKNKKKKNKKKKSPVPVETLKDVKKELTYQNTDLSEIKEEEQVKSTDRKSAVEAQNEVTENPKQKIAAESSENVDCPENPKIKLDGKLDQEGDDVQTAAEEVLADGDTLDFEDDTVQSSGPRAGGEELDEGVAKDNAKIDGATQSSPAEPKSEDADRCTLPEHESPSQDISDACEAESTERCEMSEHPSQTVRKALDSNSLENDDLSAPGREPGHFNPESREDTRGGNEKGKSKEDCTMS [LRRFIP1] | 0.265 | 58.7 |  | 0.0557 | -2.05 | -2.56
MAACEGRRSGALGSSQSDFLTPPVGGAPWAVATTVVMYPPPPPPPHRDFISVTLSFGENYDNSKSWRRRSCWRKWKQLSRLQRNMILFLLAFLLFCGLLFYINLADHWKALAFRLEEEQKMRPEIAGLKPANPPVLPAPQKADTDPENLPEISSQKTQRHIQRGPPHLQIRPPSQDLKDGTQEEATKRQEAPVDPRPEGDPQRTVISWRGAVIEPEQGTELPSRRAEVPTKPPLPPARTQGTPVHLNYRQKGVIDVFLHAWKGYRKFAWGHDELKPVSRSFSEWFGLGLTLIDALDTMWILGLRKEFEEARKWVSKKLHFEKDVDVNLFESTIRILGGLLSAYHLSGDSLFLRKAEDFGNRLMPAFRTPSKIPYSDVNIGTGVAHPPRWTSDSTVAEVTSIQLEFRELSRLTGDKKFQEAVEKVTQHIHGLSGKKDGLVPMFINTHSGLFTHLGVFTLGARADSYYEYLLKQWIQGGKQETQLLEDYVEAIEGVRTHLLRHSEPSKLTFVGELAHGRFSAKMDHLVCFLPGTLALGVYHGLPASHMELAQELMETCYQMNRQMETGLSPEIVHFNLYPQPGRRDVEVKPADRHNLLRPETVESLFYLYRVTGDRKYQDWGWEILQSFSRFTRVPSGGYSSINNVQDPQKPEPRDKMESFFLGETLKYLFLLFSDDPNLLSLDAYVFNTEAHPLPIWTPA [MAN1B1] | 0.19 | 51.6 | 52.1 | -0.189 | 0.594 | 0.346
MAANMYRVGDYVYFENSSSNPYLVRRIEELNKTANGNVEAKVVCLFRRRDISSSLNSLADSNAREFEEESKQPGVSEQQRHQLKHRELFLSRQFESLPATHIRGKCSVTLLNETDILSQYLEKEDCFFYSLVFDPVQKTLLADQGEIRVGCKYQAEIPDRLVEGESDNRNQQKMEMKVWDPDNPLTDRQIDQFLVVARAVGTFARALDCSSSIRQPSLHMSAAAASRDITLFHAMDTLQRNGYDLAKAMSTLVPQGGPVLCRDEMEEWSASEAMLFEEALEKYGKDFNDIRQDFLPWKSLASIVQFYYMWKTTDRYIQQKRLKAAEADSKLKQVYIPTYTKPNPNQIISVGSKPGMNGAGFQKGLTCESCHTTQSAQWYAWGPPNMQCRLCASCWIYWKKYGGLKTPTQLEGATRGTTEPHSRGHLSRPEAQSLSPYTTSANRAKLLAKNRQTFLLQTTKLTRLARRMCRDLLQPRRAARRPYAPINANAIKAECSIRLPKAAKTPLKIHPLVRLPLATIVKDLVAQAPLKPKTPRGTKTPINRNQLSQNRGLGGIMVKRAYETMAGAGVPFSANGRPLASGIRSSSQPAAKRQKLNPADAPNPVVFVATKDTRALRKALTHLEMRRAARRPNLPLKVKPTLIAVRPPVPLPAPSHPASTNEPIVLED [MTA2] | -0.0629 | 48.4 | 49.5 | -0.00514 | 0.686 | 5.69
MAARAGFQSVAPSGGAGASGGAGAAAALGPGGTPGPPVRMGPAPGQGLYRSPMPGAAYPRPGMLPGSRMTPQGPSMGPPGYGGNPSVRPGLAQSGMDQSRKRPAPQQIQQVQQQAVQNRNHNAKKKKMADKILPQRIRELVPESQAYMDLLAFERKLDQTIMRKRLDIQEALKRPIKQKRKLRIFISNTFNPAKSDAEDGEGTVASWELRVEGRLLEDSALSKYDATKQKRKFSSFFKSLVIELDKDLYGPDNHLVEWHRTATTQETDGFQVKRPGDVNVRCTVLLMLDYQPPQFKLDPRLARLLGIHTQTRPVIIQALWQYIKTHKLQDPHEREFVICDKYLQQIFESQRMKFSEIPQRLHALLMPPEPIIINHVISVDPNDQKKTACYDIDVEVDDTLKTQMNSFLLSTASQQEIATLDNKIHETIETINQLKTQREFMLSFARDPQGFINDWLQSQCRDLKTMTDVVGNPEEERRAEFYFQPWAQEAVCRYFYSKVQQRRQELEQALGIRNT [SMARCD1] | 0.347 | 47.4 | 49.3 | -0.0288 | 0.481 | 1.5
MAEHPPLLDTTQILSSDISLLSAPIVSADGTQQVILVQVNPGEAFTIRREDGQFQCITGPAQVPMMSPNGSVPPIYVPPGYAPQVIEDNGVRRVVVVPQAPEFHPGSHTVLHRSPHPPLPGFIPVPTMMPPPPRHMYSPVTGAGDMTTQYMPQYQSSQVYGDVDAHSTHGRSNFRDERSSKTYERLQKKLKDRQGTQKDKMSSPPSSPQKCPSPINEHNGLIKGQIAGGINTGSAKIKSGKGKGGTQVDTEIEEKDEETKAFEALLSNIVKPVASDIQARTVVLTWSPPSSLINGETDESSVPELYGYEVLISSTGKDGKYKSVYVGEETNITLNDLKPAMDYHAKVQAEYNSIKGTPSEAEIFTTLSCEPDIPNPPRIANRTKNSLTLQWKAPSDNGSKIQNFVLEWDEGKGNGEFCQCYMGSQKQFKITKLSPAMGCKFRLSARNDYGTSGFSEEVLYYTSGCAPSMPASPVLTKAGITWLSLQWSKPSGTPSDEGISYILEMEEETSGYGFKPKYDGEDLAYTVKNLRRSTKYKFKVIAYNSEGKSNPSEVVEFTTCPDKPGIPVKPSVKGKIHSHSFKITWDPPKDNGGATINKYVVEMAEGSNGNKWEMIYSGATREHLCDRLNPGCFYRLRVYCISDGGQSAVSESLLVQTPAVPPGPCLPPRLQGRPKAKEIQLRWGPPLVDGGSPISCYSVEMSPIEKDEPREVYQGSEVECTVSSLLPGKTYSFRLRAANKMGFGPFSEKCDITTAPGPPDQCKPPQVTCRSATCAQVNWEVPLSNGTDVTEYRLEWGGVEGSMQICYCGPGLSYEIKGLSPATTYYCRVQALSVVGAGPFSEVVACVTPPSVPGIVTCLQEISDDEIENPHYSPSTCLAISWEKPCDHGSEILAYSIDFGDKQSLTVGKVTSYIINNLQPDTTYRIRIQALNSLGAGPFSHMIKLKTKPLPPDPPRLECVAFSHQNLKLKWGEGTPKTLSTDSIQYHLQMEDKNGRFVSLYRGPCHTYKVQRLNESTSYKFCIQACNEAGEGPLSQEYIFTTPKSVPAALKAPKIEKVNDHICEITWECLQPMKGDPVIYSLQVMLGKDSEFKQIYKGPDSSFRYSSLQLNCEYRFRVCAIRQCQDSLGHQDLVGPYSTTVLFISQRTEPPASTNRDTVESTRTRRALSDEQCAAVILVLFAFFSILIAFIIQYFVIK [FNDC3A] | -0.111 | 48.7 | 49.1 | -0.0736 | 1.05 | 2.65
MSEGNAAGEPSTPGGPRPLLTGARGLIGRRPAPPLTPGRLPSIRSRDLTLGGVKKKTFTPNIISRKIKEEPKEEVTVKKEKRERDRDRQREGHGRGRGRPEVIQSHSIFEQGPAEMMKKKGNWDKTVDVSDMGPSHIINIKKEKRETDEETKQILRMLEKDDFLDDPGLRNDTRNMPVQLPLAHSGWLFKEENDEPDVKPWLAGPKEEDMEVDIPAVKVKEEPRDEEEEAKMKAPPKAARKTPGLPKDVSVAELLRELSLTKEEELLFLQLPDTLPGQPPTQDIKPIKTEVQGEDGQVVLIKQEKDREAKLAENACTLADLTEGQVGKLLIRKSGRVQLLLGKVTLDVTMGTACSFLQELVSVGLGDSRTGEMTVLGHVKHKLVCSPDFESLLDHKHR [POLR3D] | 0.144 |  | 48.8 | -0.118 | -0.688 | -1.1
MAHRPKRTFRQRAADSSDSDGAEESPAEPGAPRELPVPGSAEEEPPSGGGRAQVAGLPHRVRGPRGRGRVWASSRRATKAAPRADEGSESRTLDVSTDEEDKIHHSSESKDDQGLSSDSSSSLGEKELSSTVKIPDAAFIQAARRKRELARAQDDYISLDVQHTSSISGMKRESEDDPESEPDDHEKRIPFTLRPQTLRQRMAEESISRNEETSEESQEDEKQDTWEQQQMRKAVKIIEERDIDLSCGNGSSKVKKFDTSISFPPVNLEIIKKQLNTRLTLLQETHRSHLREYEKYVQDVKSSKSTIQNLESSSNQALNCKFYKSMKIYVENLIDCLNEKIINIQEIESSMHALLLKQAMTFMKRRQDELKHESTYLQQLSRKDETSTSGNFSVDEKTQWILEEIESRRTKRRQARVLSGNCNHQEGTSSDDELPSAEMIDFQKSQGDILQKQKKVFEEVQDDFCNIQNILLKFQQWREKFPDSYYEAFISLCIPKLLNPLIRVQLIDWNPLKLESTGLKEMPWFKSVEEFMDSSVEDSKKESSSDKKVLSAIINKTIIPRLTDFVEFLWDPLSTSQTTSLITHCRVILEEHSTCENEVSKSRQDLLKSIVSRMKKAVEDDVFIPLYPKSAVENKTSPHSKFQERQFWSGLKLFRNILLWNGLLTDDTLQELGLGKLLNRYLIIALLNATPGPDVVKKCNQVAACLPEKWFENSAMRTSIPQLENFIQFLLQSAHKLSRSEFRDEVEEIILILVKIKALNQAESFIGEHHLDHLKSLIKED [GCFC2] | 0.109 | 51.2 | 51.7 | -0.0501 | -2.18 | -1.62
